US20220242962A1 (APTEVO RESEARCH AND DEVELOPMENT, published 2022)

How the values were obtained:
Cyno 4-1BB ECD-AFH = biological target: T1, Cyno 4-1BB ECD-AFH (cynomolgus monkey); test: SPR (Biacore 8K), construct captured, monovalent ECD
T1 construct: entry includes the tags; also called FOB004; Cyno CD137 ECD-avi-flag-his
T1 chain: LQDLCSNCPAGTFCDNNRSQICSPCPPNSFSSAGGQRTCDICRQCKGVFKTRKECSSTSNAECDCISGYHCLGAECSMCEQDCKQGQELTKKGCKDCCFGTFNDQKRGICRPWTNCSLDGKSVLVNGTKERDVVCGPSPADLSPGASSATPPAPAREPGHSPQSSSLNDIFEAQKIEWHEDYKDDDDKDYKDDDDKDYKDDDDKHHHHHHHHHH
Method: (§1) Mouse anti-human IgG (GE, BR-1008-39) at 25 μg/ml in 10 mM sodium acetate pH 5.0 was immobilized at a density of ˜10,000 response units (RU) onto each flow cell of a CM5 research-grade sensor chip (GE) by standard amine coupling chemistry. Each binding protein at approximately 100 nM in HBS-EP+ with 0.2% BSA buffer was captured in a flow cell with the immobilized anti-human IgG at a flow rate of 10 μL/min for 20 seconds, leaving one flow cell surface unmodified as the reference. Using a single-cycle kinetics mode, five different concentrations of ECD were sequentially injected through each flow cell at 30 μL/min for 300 seconds followed by a 600 second dissociation period. Regeneration was achieved by injection of 3 M MgCl₂ at a flow rate of 30 μL/min for 30 seconds followed by HBS-EP+ with 0.2% BSA buffer stabilization for 1 min.
(§2) Sensorgrams obtained from kinetic SPR measurements were analyzed by the double subtraction method. The signal from the reference flow cell was subtracted from the analyte binding response obtained from flow cells with immobilized or captured ligands. Buffer reference responses were then averaged from multiple injections. The averaged buffer reference responses were then subtracted from analyte binding responses, and the final double-referenced data were analyzed with Biacore T200 Evaluation software (2.0, GE), globally fitting data to derive kinetic parameters. All sensorgrams were fitted using a simple one-to-one binding model.
(§3) Using the BIACORE 8K SPR system, the affinity of these constructs for human and cyno 4-1BB, and human and cyno OX40 ECD, were determined using the methods described above. Monovalent binding affinity was determined by capturing the ADAPTIR™ bispecific construct on the chip and injecting monovalent ECD of the target at multiple concentrations.

Human OX40 ECD-AFH = biological target: T2, Human OX40 ECD-AFH (human); test: as above
T2 construct: ECD'; entry includes the C-terminal tags; also called OXF003; Human OX40 ECD-avi-flag-his
T2 chain: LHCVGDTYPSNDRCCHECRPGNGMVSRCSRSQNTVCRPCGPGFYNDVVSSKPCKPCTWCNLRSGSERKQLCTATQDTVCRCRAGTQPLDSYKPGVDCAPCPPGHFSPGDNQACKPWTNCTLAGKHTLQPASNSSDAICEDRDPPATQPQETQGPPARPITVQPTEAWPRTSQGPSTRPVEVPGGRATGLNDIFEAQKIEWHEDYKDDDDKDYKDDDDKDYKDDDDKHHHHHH
Method: as §1, §2, §3

Human 4-1BB ECD-AFH = biological target: T3, Human 4-1BB ECD-AFH (human); test: as above
T3 construct: entry includes the tags; also called FOB003; HUMAN CD137 ECD-AVI-FLAG-HIS
Method: as §1, §2, §3

Cyno OX40-AFH = biological target: T4, Cyno OX40-AFH (cynomolgus monkey); test: as above
T4 construct: entry includes the tags; also called OXF005; cyno OX40 ECD
T4 chain: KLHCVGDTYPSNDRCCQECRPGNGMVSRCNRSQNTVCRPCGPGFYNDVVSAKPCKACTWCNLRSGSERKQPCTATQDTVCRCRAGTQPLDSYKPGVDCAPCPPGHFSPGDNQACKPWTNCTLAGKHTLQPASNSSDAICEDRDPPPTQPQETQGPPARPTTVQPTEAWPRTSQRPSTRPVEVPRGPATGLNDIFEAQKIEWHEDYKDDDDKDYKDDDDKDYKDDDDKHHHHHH
Method: as §1, §2, §3

Full-length Cyno 4-1BB = biological target: T5, Full-length Cyno 4-1BB (cynomolgus monkey, UniProt Q07011 24-255 (human entry)); test: flow cytometry on Jurkat cells transfected with cynomolgus 4-1BB, goat anti-human Fc secondary antibody, MFI (Mean)
T5 construct: on Jurkat or CHO cells; also called FOB006; cynomolgus 4-1BB
T5 chain: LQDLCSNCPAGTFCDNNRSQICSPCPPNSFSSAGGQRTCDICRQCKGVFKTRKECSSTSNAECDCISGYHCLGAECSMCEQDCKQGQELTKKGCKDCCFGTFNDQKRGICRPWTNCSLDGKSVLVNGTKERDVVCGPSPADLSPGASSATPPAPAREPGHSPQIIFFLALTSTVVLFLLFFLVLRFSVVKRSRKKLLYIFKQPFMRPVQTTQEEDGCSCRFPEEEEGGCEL
Method: (§4) Serial dilutions of ADAPTIR™ constructs were incubated with transfected target cells and subsequently labelled with a fluorescently-conjugated goat-a-human Fc secondary antibody. […] (See Example 25.)

Full-length Human OX40 = biological target: T6, Full-length Human OX40 (human, UniProt P43489 29-277); test: cell-based or functional assay
T6 sequence: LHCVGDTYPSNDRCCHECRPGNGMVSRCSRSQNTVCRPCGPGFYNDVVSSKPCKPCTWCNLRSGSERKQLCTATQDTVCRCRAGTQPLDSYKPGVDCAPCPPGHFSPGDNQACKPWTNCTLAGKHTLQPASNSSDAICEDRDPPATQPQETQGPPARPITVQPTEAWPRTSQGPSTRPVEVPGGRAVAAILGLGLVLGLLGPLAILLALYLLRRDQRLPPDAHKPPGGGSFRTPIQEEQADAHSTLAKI

Full-length Human 4-1BB = Full-length Human 4-1BB (human, UniProt Q07011 24-255); test: cell-based or functional assay
Full-length Cyno OX40 = biological target: T7, Full-length Cyno OX40 (cynomolgus monkey, UniProt P43489 29-277 (human entry)); test: flow cytometry on CHOK1SV cells transfected with cynomolgus OX40, goat anti-human Fc secondary antibody, MFI (Mean)
T7 construct: on CHO-K1SV cells; also called OXF004; cynomolgus OX40
T7 chain: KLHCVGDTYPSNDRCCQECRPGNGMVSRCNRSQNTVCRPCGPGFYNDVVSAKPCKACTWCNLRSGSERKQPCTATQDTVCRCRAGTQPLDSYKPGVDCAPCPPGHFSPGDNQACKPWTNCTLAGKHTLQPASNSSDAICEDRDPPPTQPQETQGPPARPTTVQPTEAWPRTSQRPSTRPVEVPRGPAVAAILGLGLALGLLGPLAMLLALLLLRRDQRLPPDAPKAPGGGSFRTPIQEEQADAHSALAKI
Method: as §4

B1: FXX01114 (bispecific antibody)
chain: EVQLVQSGAEVKKPGASVKVSCKASGYTFTSYWMNWVRQAPGQGLEWMGNIYPSGGSTNYAQKFQGRVTMTVDTSTSTVYMELSSLRSEDTAVYYCASFSDGYYAYAMDYWGQGTLVTVSSGGGGSGGGGSGGGGSGGGGSEIVMTQSPATLSLSPGERATLSCRASQSVSSYLNWYQQKPGQAPRLLIYYASRRHTGIPARFSGSGSGTDFTLTISSLQPEDFAVYYCQQGYNLPYTFGQGTKVEIKEPKSSDKTHTCPPCPAPPAAAPSVFLFPPKPKDTLMISRTPEVTCVVVDVSHEDPEVKFNWYVDGVEVHNAKTKPREEQYNSTYRVVSVLTVLHQDWLNGKEYKCAVSNKALPAPIEKTISKAKGQPREPQVYTLPPSRDELTKNQVSLTCLVKGFYPSDIAVEWESNGQPENNYKTTPPVLDSDGSFFLYSKLTVDKSRWQQGNVFSCSVMHEALHNHYTQKSLSLSPGGGGSPSSYVLTQPPSVSVAPGQTARITCGGNNIGSKSVNWFQQKPGQAPVLVVYDDSGRPSGIPARFSGSTSGNTATLTISRVEAGDEADYYCQVWDSSSDHVVFGGGTKLTVLGGGGSGGGGSGGGGSGGGGSQVQLVESGGGVVQPGRSLRLSCAASGFTLSYYGMHWVRQAPGKGLEWVAAISHDGSDKYYADSVKGRFTISRDNSKNRLYLQMNSLRAEDTAVYYCSNDQFDPWGQGTLVTVSSR
notes: ADAPTIR anti-4-1BB x anti-OX40, pI variant
B1 showed a Kd (Cyno 4-1BB ECD-AFH) of 116 nM, a koff (Cyno 4-1BB ECD-AFH) of 0.0091 s⁻¹ and a kon (Cyno 4-1BB ECD-AFH) of 79000 M⁻¹ s⁻¹. For the same binder, the Kd (Human OX40 ECD-AFH) was under 1 nM, the koff (Human OX40 ECD-AFH) was 0.00026 s⁻¹ and the kon (Human OX40 ECD-AFH) was 1.1e+06 M⁻¹ s⁻¹. The Kd (Human 4-1BB ECD-AFH) was 17 nM, the koff (Human 4-1BB ECD-AFH) was 0.0045 s⁻¹ and the kon (Human 4-1BB ECD-AFH) was 270000 M⁻¹ s⁻¹. The Kd (Cyno OX40-AFH) was under 1 nM, the koff (Cyno OX40-AFH) was 0.00028 s⁻¹ and the kon (Cyno OX40-AFH) was 1.1e+06 M⁻¹ s⁻¹. The “EC50 (read off the curve)” value (Full-length Cyno 4-1BB) was about 0.3 nM, the “OX40 Reporter Assay EC50” value (Full-length Human OX40) was 0.018 nM and the “OX40 Reporter Assay Max induction” value (Full-length Human OX40) was 6.08e+06. The “4-1BB Reporter Assay EC50” value (Full-length Human 4-1BB) was 0.018 nM, the “4-1BB Reporter Assay Max induction” value (Full-length Human 4-1BB) was 1.43e+06 and the “EC50 (read off the curve)” value (Full-length Cyno OX40) was 1 to 2 nM.
